# In patent US9012420B2, “Aptamer for chymase, and use thereof” (Ribomic Inc., priority 2009, dated 2015):
# T1: chymase (Homo sapiens, UniProt P23946 P23946:22-247)
# T1 sequence: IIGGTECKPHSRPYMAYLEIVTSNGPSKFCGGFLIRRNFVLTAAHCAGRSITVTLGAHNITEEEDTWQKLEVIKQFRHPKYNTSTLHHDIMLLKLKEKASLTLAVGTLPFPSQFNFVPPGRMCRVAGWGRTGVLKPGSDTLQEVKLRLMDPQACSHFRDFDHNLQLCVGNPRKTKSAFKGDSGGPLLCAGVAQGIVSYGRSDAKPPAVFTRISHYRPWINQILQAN
# B1: 72(7) (mixed)
# mixed: GGGTTAGAUAGAGTUAAAAACCC
# modifications: 2'-F U; 2'-OMe 1-3,7,10,13,16-20; DNA T4,T5,A8,T14,C21-C23; 5' idT; 3' PEG 40 kDa
# B2: 72(6) (mixed)
# mixed: GGGTTAGAUAGAGTUAAAAACCC
# modifications: 2'-F U; 2'-OMe 1-3,7,8,10,13,16,17,19,20; DNA T4,T5,T14,A18,C21-C23; 5' and 3' idT
# Legend:
# chymase [1] = target: T1, chymase; experiment: inhibition; angiotensin I; recombinant 0.043; details: tags: human skin mast cell, Calbiochem; label: 5' biotin
# Procedure: (§1) The total volume of solution for an enzyme reaction in the assay was set to 50 μL, and the reaction was performed in solution C buffer. First, 0.3-0.75 ng of chymase (recombinant, (manufactured by SIGMA) or native (manufactured by Calbiochem)) was diluted with solution C to give 5 μL thereof. Here, the recombinant is chymase expressed by yeast, and the native is chymase purified from human skin mast cell. The nucleic acid was serially diluted with solution C at a concentration of 0.0027-2 μM to give 25 μL thereof. The chymase solution (5 μL) and the nucleic acid solution (25 μL) were mixed, and the mixture was incubated at 37° C. for 5 min. […] The whole mixture was centrifuged at 4° C., 14000 rpm for 10 min, and the supernatant (30 μL) was used for the next fluorescence induction reaction.
# (§2) The above-mentioned supernatant (30 μL) was added to a 96 well plate (black, manufactured by Costar), a solution (15 μL) of 2% o-phthalaldehyde (manufactured by SIGMA) in methanol and 0.3M NaOH solution (170 μL) were added to each well, and the mixture was incubated at room temperature for 10 min. […] The plate was set on a microplate reader SpectraMax190 (manufactured by Molecular device) and the fluorescence intensity was measured at an excitation wavelength of 355 nm and a fluorescence wavelength of 460 nm.
# chymase [2] = target: T1, chymase; experiment: inhibition; angiotensin I; recombinant 0.065; details: tags: human skin mast cell, Calbiochem
# Procedure: as §1, §2
# chymase [3] = target: T1, chymase; experiment: inhibition; Suc-AAPF-MCA, 37 C, solution C; details: tags: recombinant, expressed in yeast, SIGMA
# In short: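 Nucleic acids, serially diluted to 0.0027-2 μM before mixing, were preincubated with substrate in solution C for 5 min at 37 °C. Recombinant chymase started the reaction (final 16.7 nM or 1.67 nM; substrate 100 μM). AMC fluorescence (ex 380/em 460 nm) was followed for 5 (or 30) min; initial slope versus uninhibited velocity gave inhibition.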
# chymase [4] = target: T1, chymase; experiment: inhibition; angiotensin I; recombinant 0.158; details: tags: human skin mast cell, Calbiochem
# Procedure: as §1, §2
# chymase [5] = target: T1, chymase; experiment: inhibition; angiotensin I; recombinant 0.036; details: tags: human skin mast cell, Calbiochem
# Procedure: as §1, §2
# chymase [6] = target: T1, chymase; experiment: inhibition; angiotensin I; recombinant 0.201; details: tags: human skin mast cell, Calbiochem
# Procedure: as §1, §2
# chymase [7] = target: T1, chymase; experiment: inhibition; angiotensin I; recombinant 0.370; details: tags: human skin mast cell, Calbiochem
# Procedure: as §1, §2
binder,measurement,setting,value
"GGGTTAGAUAGAGTUAAAAACCC (mixed, 2'-F U; 2'-OMe 1-3,7,10,13,16-20; DNA T4,T5,A8,T14,C21-C23; 5' and 3' idT) [72(8)]",IC50,chymase [1],97 nM
"GGGTTAGAUAGAGTUAAAAACCC (mixed, 2'-F U; 2'-OMe 1-3,7,8,10,13,16-20; DNA T4,T5,T14,C21-C23; 5' and 3' idT) [SEQ 72]",IC50,chymase [2],120 nM
B1,IC50,chymase [3],55 nM
same,IC50,chymase [4],312 nM
"GGGTTAGAUAGAGTUAAAAACCC (mixed, 2'-F U; 2'-OMe 1-3,7,10,13,16-20; DNA T4,T5,A8,T14,C21-C23; 5' and 3' idT) [72(1)]",IC50,chymase [5],103 nM
"GGGTTAGAUAGAGTUAAAAACCC (mixed, 2'-F U; 2'-OMe 1-3,7,8,10,13,16,18-20; DNA T4,T5,T14,A17,C21-C23; 5' and 3' idT) [72(5)]",IC50,chymase [3],27 nM
same,IC50,chymase [6],377 nM
B2,IC50,chymase [3],41 nM
same,IC50,chymase [7],573 nM
